Experimental data: the DeepSol protein solubility set

Test: soluble on expression in E. coli; label from the status in PepcDB or PDB records

For “GPGSMQTDFGDATTFSLRPDHKRKFRPNDIRPVVRSLLESRLENEVYKADEMQSISKEIADGVRDRIRSMELERYKIMVHCMIGEQRGQGLRAGCKMFWDSDTDDYFEEVYVTQHLFAVVTVFGLYQY”, which “soluble on expression in E. coli” value is on record?
Its value is “not soluble”.

With “MALVDQESCLRGFYSVFLRHCDVEPAIATFDGVRSPPDVVRLYPKPRYDYTLASAFLGTAVSGYITSRRDNAPNKNTGHRYVYTTSILIAVVTSVDTQHRSPSRCFMAMGESYFLQDEKCVFWLEHHHHHH” as the sequence, how does the “soluble on expression in E. coli” value read?
Its value is “not soluble”.

With “MSALIVSDIDGTLIDSRERIPSAVKESLAAAQRAGVSFVVATGRPARWIHPIIDQLYTPPTLCVCANGAVIYDPACDSITHRRELAPDAMRTVVRVAREALSDLGGCGVGVERAGVSAHDMPGELFMVTPDFVHSWESIEHSTVELDRVLARSAVKLLLRNDALTSEQMHRLVAPVVPADVAHVTYSMPDGLLEVMQPGVNKSSALDVVAQDLGVDPADAIAFGDMLNDLEMIRWAGTGVAMGNACDQLQRAADVVAPTNDEAGIAVVLREWLQG” as the sequence, how does the “soluble on expression in E. coli” value read?
The value was “not soluble”.

With “MEDIGADSDDFFSLAEELPQNEDLLESEDDAPIIKLINAMLGEAIKEGASDIHIETFEKTLSIRFRVDGVLREVLAPSRKLSSLLVSRVKVMAKLDIAEKRVPQDGRISLRIGGRAVDVRVSTMPSSHGERVVMRLLDKNATRLDLHSLGMTAHNHDNFRRLIKRPHGIILVTGPTGSGKSTTLYAGLQELNSSERNILTVEDPIEFDIDGIGQTQVNPRVDMTFARGLRAILRQDPDVVMVGEIRDLETAQIAVQASLTGHLVMSTLHTNTAVGAVTRLRDMGIEPFLISSSLLGVLAQRLVRTLCPDCKEPYEADKEQRKLFDSKKKEPLILYRATGCPKCNHKGYRGRTGIHELLLVDDALQELIHSEAGEQAMEKHIRATTPSIRDDGLDKVRQGITSLEEVMRGSRSHHHHHH” as the sequence, how does the “soluble on expression in E. coli” value read?
Its value is “soluble”.

For “MGSDKIHHHHHHMGHQEFMSQEEVDALLKGVTGETDTVDEQRDLSSVRPYNIATQERIVRGRMPGLEIINDRFARLLRIGIFNFMRRTAEISVSQVKVQKYSEFTRNLPIPTNLNLVHVKPLRGTSLFVFDPNLVFFVVDNLFGGDGRFHTRVEGRDFTATEQRIIGKLLNLVFEHYATAWKSVRPLQFEFVRSEMHTQFANVATPNEIVIVTQFSIEFGPTGGTLHICMPYSMIEPIRDVLSSPIQGEALEVDRRWVRVLSQQVQSAEVELSANLAEIPSTFEKILNLRAGDVLPLEIEDTITAKVDGVPVMECGYGIFNGQYALRVQKMISASDTMKEGGYE”, which “soluble on expression in E. coli” value is on record?
Its value is “not soluble”.

With “CGSSSHETSYGYATLSYADYWAGELGQSRDVLLAGNAEADRAGDLDAGMFDAVSRATHGHGAFRQQFQYAVEVLGEKVLSKQETEDSRGRKKWEYETDPSVTKMVRASASFQDLGEDGEIKFEAVEGAVALADRASSFMVDSEEYKITNVKVHGMKFVPVAVPHELKGIAKEKFHFVEDSRVTENTNGLKTMLTEDSFSARKVSSMESPHDLVVDTVGTGYHSRFGSDAEASVMLKRADGSELSHREFIDYVMNFNTVRYDYYGDDASYTNLMASYGTKHSADSWWKTGRVPRISCGINYGFDRFKGSGPGYYRLTLIANGYRDVVADVRFLPKYEGNIDIGLKGKVLTIGGADAETLMDAAVDVFADGQPKLVSDQAVSLGQNVLSADFTPGTEYTVEVRFKEFGSVRAKVVAQ” as the sequence, how does the “soluble on expression in E. coli” value read?
The value was “soluble”.

With “MKISIICPLYNAENYIMSLHNKILEQEKPEGTEVEVSYVLTRCKDKTEEMLKNMNLQYTLIEPKDFSHSKTREMMAFKSTGDIIVFISQDVMMKNNFWLKNLVQPIIDGECEASFSRQLCTNNTIEKYIREKNYPEESRVVSKKDINKYGLLTFFYSDASSAVKTSVYKELNGYDNKRLLINEDMYFAEKLIQAGYRIKYCSDSEVYHSHVFTLKSLYERYFDTGVFFRQNSQFLNYKGNKSGKDLAIHVLKRSLEDKNFKVTLNILPNFGARFIGSFLGKKYESLPRSFVMASSMSKKVYSQILEHHHHHH” as the sequence, how does the “soluble on expression in E. coli” value read?
Its value is “soluble”.

Which “soluble on expression in E. coli” value does the source give for “MNVAAILLAAGKSQRMGLCKQLLQLADRPAVAHCLDTLTAVGLQEIIVVVSPGGDEVAAAVSRYPVVVAVNESDSCDMADSARTGLARLISDPTGVLVALADHPLVRPDTVRALVNRHGEEPDAILIPVHDGAKGHPTLFPAAILQEIGQVATLRDIIGRHRDKVRLVPVADEGVVMDMDVWEDYLAMAERLNPPGLEHHHHHH” here?
Its value is “soluble”.

Which “soluble on expression in E. coli” value does the source give for “MDKTTHDKGLEIRKAVLGEAYVENALKNADDFNQPFQELVTEYCWGAIWGRDGLPKKTRSMLNLAMIAILNRPHELRAHIKGALTNGVTKDEIREIFMQVACYAGIPAGVDSFRIAREVFAELDKA” here?
Its value is “not soluble”.

Which “soluble on expression in E. coli” value does the source give for “MSLPKIIPAIMAGGRGTRLWPLSRATAAKQFLKLIGEETLFQDTLKRVSDAKVYGAPLVITNEEFRFLVAEQARELGVTLSSIVLEPVPRNTAAAVAVAARIVADRFGEDALLLVLPSDHAITVDDTYKKCVRSACIAAAEGKLVTFGIQPTWPATGYGYIERGTYLGKDVHAVQCFVEKPSLEKAAALLETGNYYWNSGMFLFQAASIIAELEEHAPDVLSAVHAAVRGSTVDADFIRLAPESFSQAPSISIDYALMEKTANAAVVCSDFAWSDLGSWDAVWKNEEQNADGNVLKGNVTACNTKNSLVLSHTAHLAVQGMDGVAVIASEDAVFVGRLEEAHEIGNLVKRLAADENTARLTELHPTLIRPWGGYTTMLNGDRFQVRRLFVRPGKMLSLHKHFHRSEHWICVKGTAEVTIEDRVTILHENQSIYIPEGAIHRLGNPGKIMLELVEIQTGAYLGEDDIIRVADESRNEMPDSREGHHHHHH” here?
The value was “not soluble”.

For “MAHHHHHHMEGVSNILSIAGSDSCGGAGIQADIKTAMGLGCHCCTALVVLTAQNTKEVKRIVEIEEAFIVDQLDSIFADVTIDVVKLGVLYSKKIISLVSQYIVQMNKKRGKKLLVVFDPVFVSSSGCLLVENLEYIKFALDLICPISCIITPNFYECKVILQALDCQMDLSKANMTELCKLVTRMLDINACLLKSCNVGENSAEENEVYAVDHLCIRKVGSIPEGEVIQRDAGELGQSAPGGVTYLYDVYKLRSKRKPGVDVHGTGCTLSTAIACYLAKKHNILQSCIESKKYIYNCIRYAYPFGSKSQGLNHLKASQELPTFTDLEVIPIVQDSP”, which “soluble on expression in E. coli” value is on record?
The value was “soluble”.

With “MKHQHQHQHQHQHQQPLQEEEQAHATSLPPRASSPPQILPQLSPEQLGMIEKLVAAQQQCNRRSFSDRLRVTPWPMAPDPHSREARQQRFAHFTELAIVSVQEIVDFAKQLPGFLQLSREDQIALLKTSAIEVMLLETSRRYNPGSESITFLKDFSYNREDFAKAGLQVEFINPIFEFSRAMNELQLNDAEFALLIAISIFSADRPNVQDQLQVERLQHTYVEALHAYVSIHHPHDRLMFPRMLMKLVSLRTLSSVHSEQVFALRLQDKKLPPLLSEIWDVHE” as the sequence, how does the “soluble on expression in E. coli” value read?
The value was “soluble”.

For “MSLSALIINEYREQGGTAISFPEDISRARQKLFRFLDNRFDSDQYRENVRELTPAIMAVLPVEFRTRLAPQNDTMSLIASAMKECSEAKQAVLLNAPEHQKMKEVSEGIASLFRLMPEQVGPLMTMVTSMLGVIEGHHHHHH”, which “soluble on expression in E. coli” value is on record?
Its value is “not soluble”.

For “MLRSFTIRTAKRDEMIDITSFVEETVRQANVTEGIAVVYCPHTTAGITINENADPDVKRDMMRRFDETYPWEHPLDRHMEGNTAAHMKASTVGASQHVIIHEGRLLLGRWQGVYFCEYDGPRHRTFYVKVIGG”, which “soluble on expression in E. coli” value is on record?
The value was “not soluble”.

Which “soluble on expression in E. coli” value does the source give for “MTNEKGLDKGYELVAKMHEVFGHPVTNTPTKLTEERAKIRASFMQEELEEFLEATTVEDQYDALIDLIYFAFGTFAEMGVRPDKGFEIVNNANMAKLFPDGKPRFREGDGKILKPEGWQAPEPQLRAEIERQRQEAEKNC” here?
The value was “soluble”.

With “MEQLTLQVEGMSCGHCVNAIESSVKELNGVEQVKVQLAEGTVEVTIDSSVVTLKDIVAVIEDQGYDVQ” as the sequence, how does the “soluble on expression in E. coli” value read?
The value was “not soluble”.

For “MRMKPYSELTREELLELKKDLSAQYHAFQGKDLKLDMSRGKPSVEQLDLSMGMMDVLNSDCDLTCEDGTDCRNYGVLDGIREAKELLGDMIEVPADNIIIYGNSSLNVMYDTISRSMTHGVMGNTPWCKLDKVKFLCPVPGYDRHFAITEYFGIEMVNVPMTEEGPDMDIVEELVSKDESIKGIWCVPKYSNPTGNSYSDQTVRRFARLKPAAADFRIYWDNAYSVHHLYDDDQDNLIEILAECKRAGNPDLAYKFSSTSKISFPGSGIAAVATSHNNLEDIKKQLRMQTIGHDKVNQLRHVRYFKNIHGMVEHMRKHAEILRPKFEAVEAILERELGGLGIGSWTSPKGGYFISFDSMDGCAKDIVAKCKKAGVVMTGAGATYPYGKDPHDSNIRIAPSYPPLQDLITATELFALCVKIVTVNKLLGATK”, which “soluble on expression in E. coli” value is on record?
The value was “not soluble”.

With “MSLIWKRKITLEALNAMGEGNMVGFLDIRFEHIGDDTLEATMPVDSRTKQPFGLLHGGASVVLAESIGSVAGYLCTEGEQKVVGLEINANHVRSAREGRVRGVCKPLHLGSRHQVWQIEIFDEKGRLCCSSRLTTAILEGGSHHHHHH” as the sequence, how does the “soluble on expression in E. coli” value read?
The value was “soluble”.

For “MGSDKIHHHHHHMCRLLAYLGSPVSLEYLLYKPEHSLIVQSYQPREMTSGVVNADGFGVGWYHSQKDTEPFTYKNTLPIWNDINLPSLSRYVESKCILAYVRSATAGQALDFANCQPFHYKQSLFIHNGYIENFRKTLHRKLRSTLTPDFYEHINGSTDSEHIFALLLSQIQSNKHRSVESVLRNTLLMLWEMAKRHQVNASANVVFSDGHRLIASRFASSSSPPSLYWLKDDLTFPNSVIIASEPLFAGNWTACPENSIISVGEDCDIKIESI”, which “soluble on expression in E. coli” value is on record?
Its value is “not soluble”.

With “EEDWVLPSEVEVLESIYLDELQVIKGNGRTSPWEIYITLHPATAEDQDSQYVCFTLVLQVPAEYPHEVPQISIRNPRGLSDEQIHTILQVLGHVAKAGLGTAMLYELIEKGKEILTDNNIPHGQ” as the sequence, how does the “soluble on expression in E. coli” value read?
Its value is “soluble”.

With “MTATQITGVVLAAGRSNRLGTPKQLLPYRDTTVLGATLDVARQAGFDQLILTLGGAASAVRAAMALDGTDVVVVEDVERGCAASLRVALARVHPRATGIVLMLGDQPQVAPATLRRIIDVGPATEIMVCRYADGVGHPFWFSRTVFGELARLHGDKGVWKLVHSGRHPVRELAVDGCVPLDVDTWDDYRRLLESVPS” as the sequence, how does the “soluble on expression in E. coli” value read?
Its value is “not soluble”.

For “MKFAVVVFPGSNCDVDMYHAIADELGEEVEYVWHDEDDLDRFDAILLPGGFSYGDYLRSGAIARFSKVMAAVKKAAEAGKPVLGVCNGFQILLEAGLLPGAMRRNQGLKFICRPVQLTVENHETIFTSAYEKGEVITIPIAHGEGNYYCDEQTLERLVENRQIVFRYHGENPNGSLADIAGIVNERGNVLGMMPHPERAVDALLGSADGLKLFRSIVNYWRETHVVTA”, which “soluble on expression in E. coli” value is on record?
The value was “not soluble”.

Which “soluble on expression in E. coli” value does the source give for “SKNPEEAAEGKQRIHLRPGSLRGAAPAKLHLLPCDVLVSRPAPVDRFFTPAVRHDADGLQASFRGRGLRGEEVAVPPGFAGFVMVTEEKGEGLIGKLNFSGDAEDKADEAQEPLERDFDRLIGATGSFSHFTLWGLETVPGPDAKVHRALGWPSLAAAIHAQVPED” here?
The value was “soluble”.

For “MSLTTPTMIAAVVEEANGPFVLRKLARPQPAPGQVLVQIEASGTNPLDAKIRAGEAPHAQQPLPAILGMDLAGTVVAVGPEVDSFRVGDAVFGLTGGVGGLQGTHAQFAAVDARLLASKPAALTMRQASVLPLVFITAWEGLVDRAQVQDGQTVLIQGGGGGVGHVAIQIALARGARVFATARGSDLEYVRDLGATPIDASREPEDYAAEHTAGQGFDLVYDTLGGPVLDASFSAVKRFGHVVSCLGWGTHKLAPLSFKQATYSGVFTLHTLLANEGLAHFGEMLREADALVQTGKLAPRLDPRTFSIAEIGSAYDAVLGRNDVPRQRGKIAITVEPQFNLHEQREGHHHHHH”, which “soluble on expression in E. coli” value is on record?
Its value is “soluble”.

For “VCLEFQDCGVGLNAAQFKQLLISAVKDLFGEVDAALPLDILTYEEKTLSAILRICSSGLVKLWSSLTLLGSYKGKKCAFRVIQVSPFLLALSGNSRELVLD”, which “soluble on expression in E. coli” value is on record?
Its value is “not soluble”.
